The DeepSol protein solubility set

Test: soluble on expression in E. coli; label from the status in PepcDB or PDB records

Question: With “MLTHQFNPYSACTSILVGKNASADGSTMIGRNEDSRAAWAKKMIIHAHREFEEPQTFKSQDQTHPFTMTLPKIRAKYTATPEWTAEYGLFEEDGINEYGVAMSATESAYCNTRVLAADPYVKDGIGEEAMVTVTLPYIHSAREGVERLGHIIEEHGTYETNGILFSDVNEVWYMETGAGHYWVAQRIPDDAYAVVANQLAIQEIDFSDHDNYLYAKDIRNFVLDNQLASMDNGLNFREVFGTADLSDRYYNTPRVWYGQRCFTPSVTQTPESFDLPFIQRADGLIHIDQVQGYLASHYQGTPFDPVGQGTATEKHQYRPISLAKTQESHVLQLRPDLPVTLSGIHWLAMGVAAESVYVPFYAGATTTPAAYQVATEKYDATSAYWIFKHVGILVDAHYHELHGELQTVQKELAIQLGHHIIVTDQQVAALTGDELAMALTKANQKAVDQALNTMQALAADLITKSTDMSPLNYDTDLNLLEHHHHHH” as the sequence, how does the “soluble on expression in E. coli” value read?
Answer: not soluble

Question: For “MLTLENQIKEEREQDNSESPNGRTSPLVSQNNEQGSTLRDLLTTTAGKLRVGSTDAGIAFAPVYAMGAPSSKSGRTMPNILDDIIASVVENKIPPSKTSKINVKPELKEEPEESIISAVDENNKLYSDIPHSWICEKHILWLRIIRIAVIGSFSKNVGNKDSLQWFLVCIRKLEHHHHHH”, which “soluble on expression in E. coli” value is on record?
Answer: not soluble

Question: For “MLTLKGKYNEAKVFTDNVDDNTIGQIITLCNQPFAKDSKIRIMPDTHGGKGCVIGTTMTIQDKIVPNLVGVDIGCGLYVVKLKPGKLKMDFDKLDKVIRERVPSGSKTHDKPVDEFDLEGIVAPIHHGWVARSIGTLGGGNHFIEVNQGSDGIYLVIHSGSRVLGKEIAEYHQEVAYKRLDILRKELKLDATAAKKRGNLEMANNLNGEREQVKLDYDLSYVTGVDLKNYLNDMEIAQKFAARNRYVMAQIILKAMKWDKAVVSAFDCVHNYIDIEHNMLRKGATSAQLGEQIIVPLNMREGSILATGKGNADWNYSAPHGAGRMLSRSKAKAQISLESYQAAMKDVWTTSVSKKTIDEAPKAYKSAKQLLADVEDTMEIQEIIKPLYNFKALEHHHHHH”, which “soluble on expression in E. coli” value is on record?
Answer: soluble

Question: With “MLTTLAISNYRTLREIVLPLGRLNVVTGANGSGKSNLYKALRLLAQTAQGGVVNALALEGGLDSCFWAGPENLTKGMLAGDTPIEATVRQAPKRLKLGFAGEDFSYLIELGLPKPDSTTLFGLDPQIKREAIWNGAKYRPASVLVERRGPMVKSRSQDGQGWITLSAHLQSSDSIFTELADPERSPEVLKLRDSIRAWRFYDHFRTDTDAPARRPQLGTATPVLHHDGRDLPSAIQTIFEIGDKSAFDHAVSDAFPGAKVRITPQAGGILQLEFQQQGLLRPLYASELSDGTLRYLLLIAALLTPRPPELMVLNEPETSLHPDLLPALARLIAKASEVCQLWVVSHANRLINALNQFEECNTLALDKTLGQTQILGQDLLNTPSWLWQNRLEHHHHHH” as the sequence, how does the “soluble on expression in E. coli” value read?
Answer: soluble

Question: With “MLTTTTNDILDQLRPLTVTKRGGAQTKFHPYKIDFVLRRLLATDDEVRVVKQALVAQYQDADNIDTRELRSTMMQILNAQGLTAAAKAYQDYFEAEQQRFAAATN” as the sequence, how does the “soluble on expression in E. coli” value read?
Answer: not soluble

Question: Which “soluble on expression in E. coli” value does the source give for “MLTYQVKQGDTLNSIAADFRISTAALLQANPSLQAGLTAGQSIVIPGLPDPYTIPYHIAVSIGAKTLTLSLNNRVMKTYPIAVGKILTQTPTGEFYIINRQRNPGGPFGAYWLSLSKQHYGIHGTNNPASIGKAVSKGCIRMHNKDVIELASIVPNGTRVTINR” here?
Answer: soluble

Question: With “MLVCDFKTTCLNWVNVDDVVMGGVSNSAMQLTQDGTAVFAGNLSLENSGGFASVRTVLERRNYADFAGFRIRVKGDGKRYSFRARNDERFDGVVYKFDFETVPDEWMEIDLSFAGFIPSFRGRTLVDVPPLDSSNIVQIGLLVSNKQAGAFWLEIAWIEAYRADTVASSFRLEHHHHHH” as the sequence, how does the “soluble on expression in E. coli” value read?
Answer: soluble

Question: Which “soluble on expression in E. coli” value does the source give for “MLVIKGVKAYTMSNIGVVEKANIIVKDGKIVDVTQELPPLEGKTVVDGEGLIALPGLIDPHTHLGVYSLEWEYGDHGTEKSDPITPHFKVIDGLDIFDPGFKDAIAGGVTTVSVEPGAPLSWASYEKTTIMPGQSAILKTNGRIIKEEAGIKIAVGGHVRKFLEELKLTPTTRMGIFAMIRMILHKAKEYLEKEDKQYDPKLEALATLLKNETVARVHAHLSRDMLSIIRLLKEFDIKNIIIEHGTEAYKISDVLKENGIPVILGPVIFPRRGVELRELSSKLAFQLYNSGMMFALTTDHPALPIQYLTLVAAACVGEGLPYEEALKSITINPAKILGIDRFVGSLEPGKDADIVLFDGDPLNPESKVMYTIIDGEVVYER” here?
Answer: soluble

Question: For “MLVNGKWTADWQPVQKADDHGRFVRQVSSFRNWITPDGSAGPTGTGGFAAEAGRYRLYVALICPWASRTLMARRLKGLDGLIPVTVVNPVMGTQGWEFGGHDDAEEDPLFGARHLHEIYTRAEPQFTGRATVPVLWDMKRDAMVNNESADILRMFDTAFEGLAPSDLRLYPAALAGEIDALNAQVYDRLNNGVYKAGFASTQEAYDEAVAGVFEMLDHLEYRLTGDYIFGGALTETDIRIFVTLIRFDAAYHGLFKTNRRQIADYPRLWAYMRRILARPGVRETVNMDHITRGYYSIKALNPSRIRPVGPAHIEAALRETAAGI”, which “soluble on expression in E. coli” value is on record?
Answer: not soluble

Question: For “MLYKRKNIKFKNFVDLHKNLSLSKLFDFYSVFEGFEKLNILNFEDDVFTNIERILLDDYLKIKSYFALDETSSYALTLLAKNNRKRFSINRKIQHFKALSTLKYLLETGIIKLEYSKEAKKIKDKRQKIKKELRSYVVQDKIIFSNHFTRFFFYFLKPNEKLILQNRYKEVLECIKEKFELYQSFCFEQLSRELLEKKFNINGVQSYWDKNLELDLYYQDENLCFVGEVKFKNKKICKNILNLLKSKAKSLNLAPNYYIIISKNGFSKEIDKICEQNLLLLDLNDFKILLEELEHHHHHH”, which “soluble on expression in E. coli” value is on record?
Answer: not soluble

Question: Which “soluble on expression in E. coli” value does the source give for “MMAKDFYSAIEDRRSIYAISKEQVVSDEKIQEVIYHAVKHTPSAFNSQSARVVVLLGEQHDKLWDITKETLRKIVPENNFAPTEEKMNAFKSGYGTVLYFEDSEVVESLQANFALYKDNFPTWSQQSSGMLQFAIWTALEIEGFGATLQHYNPLIDEEVRKEWDVPANWKLIAQMPFGKPVVQAGEKEFQPLENRVKIYK” here?
Answer: not soluble

Question: For “MMAKLVVCIIDGMADPPPPAGGVTPLAAAHTPHCDTLARHSVAGLCHVIQPEAVPGSEAGLSALLCCEAAASIARGPVEALAQGDPVAPHETVWRLNLVSLGPRGNYYNPAPLLDAATETAARKMLDRALGTQGYSLLGGKGFRHLCAGTEPPVLRDGPQDVCGMTPDTGQADLNSYCPRLARAMTEANVLFRRSRMDLAVWPWGAGTMPDLPGFAETTGQTGALAGGVPLARGLALALGMTAPSIAGATGGIDTDLGAKTRAAIALAAGHDVVYLHVEAPDLHAHALDRVAKRRAIERIDAEVVGPLHMALPDATLLITCDHATDCATGRHMAIPVPFILHKPDGPQDGIATFSEAASARTGIRIDSAATLVRLALADLEHHHHHH”, which “soluble on expression in E. coli” value is on record?
Answer: soluble

Question: Which “soluble on expression in E. coli” value does the source give for “MMARVEKLRELMKENNLQGFLVTSPYNLRYLTNFTGTTGLAMITLDKAFFVTDFRYTEQAAEQATGFTIVKNTGHIFDEVADLAERLQLDNLAFEETQVSFADYSLLEEILPCELVPVMGLIEELREVKDEEEVAIIEKACAIADQGFAFVLEMIKPGMTEIEVANQLDFFMRSKGASGVSFETIVASGLRSAMPHGVASHKVIEKGELITLDFGCYYEGYVSDMTRTFAIGSIQPKLKEIYDIVLEAQLKVLAEAKPGLTGIQLDAIARDHIASYGYGDAFGHSTGHGIGLEIHEGPNVSFRADKQFVPGNVITDEPGIYLPGIGGVRIEDDLLITAEGNRVLTHAPKELIIL” here?
Answer: not soluble

Question: With “MMAYSDTTMMSDDIDWLRSHRGVCKVDLYNPEGQQDQDRKVICFVDVSTLNVEDKDYKDAASSSSEGNLNLGSLEEKEIIVIKDTEKKDQSKTEGSVCLFKQAPSDPVSVLNWLLSDLQKYALGFQHALSPSTSTCKHKVGDTEGEYHRASSENCYSVYADQVNIDYLMNRPQNLRLEMTAAKNTNNNQSPSAPPAKPPSTQRAVISPDGECSIDDLSFYVNRLSSLVIQMAHKEIKEKLEGKSKCLHHSICPSPGNKERISPRTPASKIASEMAYEAVELTAAEMRGTGEESREGGQKSFLYSELSNKSKSGDKQMSQRESKEFADSISKGLMVYANQVASDMMVSLMKTLKVHSSGKPIPASVVLKRVLLRHTKEIVSDLIDSCMKNLHNITGVLMTDSDFVSAVKRNLFNQWKQNATDIMEAMLKRLVSALIGEEKETKSQSLSYASLKAGSHDPKCRNQSLEFSTMKAEMKERDKGKMKSDPCKSLTSAEKVGEHILKEGLTIWNQKQGNSCKVATKACSNKDEKGEKINASTDSLAKDLIVSALKLIQYHLTQQTKGKDTCEEDCPGSTMGYMAQSTQYEKCGGGQSAKALSVKQLESHRAPGPSTCQKENQHLDSQKMDMSNIVLMLIQKLLNENPFKCEDPCEGENKCSEPRASKAASMSNRSDKAEEQCQEHQELDCTSGMKQANGQFIDKLVESVMKLCLIMAKYSNDGAALAELEEQAASANKPNFRGTRCIHSGAMPQNYQDSLGHEVIVNNQCSTNSLQKQLQAVLQWIAASQFNVPMLYFMGDKDGQLEKLPQVSAKAAEKGYSVGGLLQEVMKFAKERQPDEAVGKVARKQLLDWLLANL” as the sequence, how does the “soluble on expression in E. coli” value read?
Answer: not soluble

Question: For “MMEDVGKEMSKIIQKRDINERYEELVNEVLKDQDVQAFIQANRERLTDEDIRKSYAKLYEFVQEKKKFQVNDPAMIAPGYEPRLMLNFHYIDVTYVPTADLIARQKEEEIRNRVRAMDMPKDVREANLRDFDPSSQGRAKALAEAMQFLREYPATPKEFHKGLYLQGPFGVGKSFLLGAMANALAERGFTTTIVHFPTFTVEMKQAIGRDQVGEKLDAVKKSPILMIDDIGAESMTSWIRDDVLSVILQYRMQEQLVTFFSSNLDLKALEEHLTVTQRGEQEPLKARRIMERVRYLSKEITMTGNDRRNG”, which “soluble on expression in E. coli” value is on record?
Answer: not soluble

Question: Which “soluble on expression in E. coli” value does the source give for “MMEKNNEVIQTHPLVGWDISTVDSYDALMLRLHYQTPNKSEQEGTEVGQTLWLTTDVARQFISILEAGIAKIESGDFPVNEYRRH” here?
Answer: not soluble

Question: Which “soluble on expression in E. coli” value does the source give for “MMEMITIKPGKITVQANPNMPKEVAELFRKQHYEIVGRHSGVKLCHWLKKSLTEGRFCYKQKFYGIHSHRCLQMTPVLAWCTHNCIFCWRPMENFLGTELPQPWDDPAFIVEESIKAQRKLLIGYKGNPKVDKKKFEEAWNPTHAAISLSGEPMLYPYMGDLVEEFHKRGFTTFIVTNGTIPERLEEMIKEDKLPTQLYVSITAPDIETYNSVNIPMIPDGWERILRFLELMRDLPTRTVVRLTLVKGENMHSPEKYAKLILKARPMFVEAKAYMFVGYSRNRLTINNMPSHQDIREFAEALVKHLPGYHIEDEYEPSRVVLIMRDDVDPQGTGVEGRFIKH” here?
Answer: soluble

Question: For “MMEMLVDQGTDASSSASTSTSSVSRFGADTFMNTPDDVMMNDDMEPIPRDRCNTWPMRRPQLEPPLNSSPIIHEQIPEEDADLYGSNEQCGQLGGASSNGSTAMLHTPDGSNSHQTSFPSDFRMSESPDDTVSGKKTTTRRNAWGNMSYAELITTAIMASPEKRLTLAQVYEWMVQNVPYFRDKGDSNSSAGWKNSIRHNLSLHSRFMRIQNEGAGKSSWWVINPDAKPGRNPRRTRERSNTIETTTKAQLEKSRRGAKKRIKERALMGSLHSTLNGNSIAGSIQTISHDLYDDDSMQGAFDNVPSSFRPRTQSNLSIPGSSSRVSPAIGSDIYDDLEFPSWVGESVPAIPSDIVDRTDQMRIDATTHIGGVQIKQESKPIKTEPIAPPPSYHELNSVRGSCAQNPLLRNPIVPSTNFKPMPLPGAYGNYQNGGITPINWLSTSNSSPLPGIQSCGIVAAQHTVASSSALPIDLENLTLPDQPLMDTMDVDALIRHELSQAGGQHIHFDL”, which “soluble on expression in E. coli” value is on record?
Answer: not soluble
